Measured values taken from KR20240034671A (dated 2024).

Molecular target: T1, human PTK7-Ig3-4-His (human, UniProt Q13308 221-409, limits assumed)
T1 construct: domain: Ig3-4; Made from the hPTK7-Ig1-4-His construct by DpnI-mediated deletion mutagenesis; expressed in HEK293 cells; also called hPTK7-Ig3-4-His; STK7-lg3-4-His [sic]
T1 sequence: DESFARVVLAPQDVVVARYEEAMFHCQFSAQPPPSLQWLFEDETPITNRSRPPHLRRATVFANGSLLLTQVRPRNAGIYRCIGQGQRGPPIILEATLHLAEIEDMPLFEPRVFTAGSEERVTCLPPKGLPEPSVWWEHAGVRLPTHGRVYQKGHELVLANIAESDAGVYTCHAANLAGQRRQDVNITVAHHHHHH
Assay: Ni-NTA pull-down of His-tagged construct incubated with mAb at 1:1 molar ratio, western blot

B1: anti-PTK7 mAb-52 (antibody, V domains shown)
VH: EVQLQQSGAELVKPGASVKLSCTASGFNIEDTYIHWVKQRPEQGLEWIGRIDPANGNDKYDPKFQGKATITADTSSNTAYLQLSSLTSEDTAVYYCARGDANYGSYWGQGTLVTVSA
VL: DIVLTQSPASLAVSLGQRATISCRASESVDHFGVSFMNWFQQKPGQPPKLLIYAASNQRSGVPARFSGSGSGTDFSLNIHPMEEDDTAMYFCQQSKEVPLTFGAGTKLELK
notes: Mouse monoclonal antibody from a hybridoma raised against purified human sPTK7, purified from ascites
  binding result: no binding
